# Results: patent publication US20200103410A1 (ECS PROGASTRIN, published 2020)
# B1: mAb13 (hybridoma 2C6C3C7) (antibody, V domains shown)
# VH: EVQLVESGGGLVQPGGSLKLSCAASGFIFSSYGMSWVRQSPDRRLELVASINTFGDRTYYPDSVKGRFTISRDNAKNTLYLQMTSLKSEDTAIYYCARGTGTYWGQGTTLTVSS
# VL: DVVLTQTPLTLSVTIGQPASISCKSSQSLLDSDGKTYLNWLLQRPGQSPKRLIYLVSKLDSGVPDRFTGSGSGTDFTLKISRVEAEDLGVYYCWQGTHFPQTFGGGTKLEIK
# notes: Murine monoclonal antibody
# B2: mAb19 (hybridoma 1B3B4F11) (antibody, V domains shown)
# VH: DVQLQESGPGLVKPSQSLSLTCTVTGYSITSDYAWNWIRQFPGNKLEWMGYISFSGYTSYNPSLKSRISVTRDTSRNQFFLQLTSVTTEDTATYYCAREVNYGDSYHFDYWGQGTIVTVSS
# VL: QLALTQSSSASFSLGASAKLTCTLSSQHRTYTIEWYQQQSLKPPKYVMEVKKDGSHSTGHGIPDRFSGSSSGADRYLSISNIQPEDEAIYICGVGDAIKGQSVFVFGGGTKVTVL
# notes: Murine monoclonal antibody
# B3: mAb3 (hybridoma 6B5B11C10) (antibody, V domains shown)
# VH: EVQLQQSGTVLARPGASVKMSCKASGYIFTSYWVHWVKQRPGQGLEWIGGFYPGNSDSRYNQKFKGKATLTAVTSASTAYMDLSSLTNEDSAVYFCTRRDSPQYWGQGTTLTVSS
# VL: DVLMTQTPLSLPVSLGDQASISCRSSQSIVHSNGNTYLEWYLQKPGQSPKLLIYKVSNRFSGVPDRFSGSGSGTDFTLKISRLEAEDLGVYYCFQGSHVPFTFGGGTKLEIK
# notes: Murine monoclonal antibody
# B4: mAb16 (hybridoma 1E9D9B6) (antibody, V domains shown)
# VH: QVQLQQSGAELVKPGASVKLSCKASGYTFTSYYMYWVKQRPGQGLEWIGEINPSNGGTNFNEKFKSKATLTVDKSSSTAYMQLSSLTSEDSAVYYCTRGGYYPFDYWGQGTTLTVSS
# VL: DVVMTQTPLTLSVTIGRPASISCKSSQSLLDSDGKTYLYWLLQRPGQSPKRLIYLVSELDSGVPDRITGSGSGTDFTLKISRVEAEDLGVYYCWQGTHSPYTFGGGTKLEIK
# notes: Murine monoclonal antibody
# B5: mAb4 (hybridoma 20D2C3G2) (antibody, V domains shown)
# VH: QVQLQQSGAELMKPGASVKISCKATGYTFSSSWIEWLKQRPGHGLEWIGEFLPGSGSTDYNEKFKGKATFTADTSSDTAYMLLSSLTSEDSAVYYCATDGNYDWFAYWGQGTLVTVSA
# VL: DLVMTQTPLSLPVSLGDQASISCRSSQSLVHSSGVTYLHWYLQKPGQSPKLLIYKVSNRFSGVPDRFSGSGSGTDFTLKISRVEAEDLGVYFCSQSTHVPPTFGSGTKLEIK
# notes: Murine monoclonal antibody
# Biological target: T1, human progastrin (full length) (human)
# T1 construct: also called hPG; PG
# T1 chain: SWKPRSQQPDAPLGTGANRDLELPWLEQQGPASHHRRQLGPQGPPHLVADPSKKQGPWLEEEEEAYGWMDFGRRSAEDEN
# Assay: epitope mapping (no details given)
row,Binder,binding result
1,B1,binds
2,B2,binds
3,B3,binds
4,B4,binds
5,B5,binds
